Target: the molecule itself
Test: crystal structure; hanging-drop vapor diffusion at 18 °C; 7 mg/mL protein in 40 mM Tris-HCl pH 7.0, 200 mM NaCl; precipitant 0.2 M sodium chloride, 0.1 M sodium acetate pH 4.0, 33% PEG 8000; four molecules in the asymmetric unit; FMN bound

B1: E. coli NfsB F70A/F108Y (enzyme)
chain: MDIISVALKRHSTKAFDASKKLTPEQAEQIKTLLQYSPSSTNSQPWHFIVASTEEGKARVAKSAAGNYVANERKMLDASHVVVFCAKTAMDDVWLKLVVDQEDADGRYATPEAKAANDKGRKFFADMHRKDLHDDAEWMAKQVYLNVGNFLLGVAALGLDAVPIEGFDAAILDAEFGLKEKGYTSLVVVPVGHHSVEDFNATLPKSRLPQNITLTEV
notes: Nitroreductase NfsB of Escherichia coli, 24 kDa subunit, with the substitutions F70A and F108Y; synthetic gene (Twist Bioscience) cloned into pET28a+; Homodimer with one FMN in each of two active sites at the dimer interface; also called mutNfsB; double-mutant F70A/F108Y
- stoichiometry N: 2

— publication PMC11203732, “Structural Evaluation of a Nitroreductase Engineered for Improved Activation of the 5-Nitroimidazole PET Probe SN33623” (International Journal of Molecular Sciences, 2024)
